Data from patent US20210063414A1, “METHODS FOR PREVENTING AND/OR TREATING BONE LOSS CONDITIONS BY MODULATING IRISIN” (Dana-Farber Cancer Institute, Inc., priority 2018, published 2021).

How the values were obtained:
Experiment in all cases: Crosslinking/co-immunoprecipitation/mass spectrometry (TMT quantitative proteomics) to identify irisin receptors
Assay type in all cases: binding
[1] = target: T1, MLO-Y4 cell surface proteins (Mus musculus, UniProt Q8R1J9); conditions: co-precipitated protein Tor2a (TOR2A_MOUSE)
T1 construct: endogenous in cells; host or cells: MLO-Y4
Description: (§1) MLO-Y4 cells were seeded on 30×150 mm type-I collagen coated dishes as described in cell culture experiment. At 60% cell density, medium was switched to FreeStyle™ 293 Expression medium. After 4 hours incubation, the cells were chilled on ice for 10 minutes, followed by treatment of 10 nM his-tag irisin or his-tag adipsin for 20 minutes. The cells were then incubated with 1.5 mM DTSSP for 30 minutes on ice to do cross-linking, after washing with 15 ml cold PBS twice. The cross-linking was quenched by addition of a final concentration of 20 mM Tris-pH 7.5. The cells were then harvested and homogenized in 1 ml RIPA buffer containing proteaseinhibitor cocktailand phosphatase-inhibitor cocktail. Whole-cell lysates were homogenized by 10 times passages through a 22G needle fitted to a 3 ml syringe. Homogenized samples were rotated gently in cold room for 20 minutes followed by 15,000×g centrifugation for 10 minutes. After addition of a final concentration of 10 mM imidazole, supernatants were incubated with 100 μl Ni-NTA agarose for 1 hour. After centrifugation at 500×g for 1 minute, the supernatants were aspirated and 1 ml cold RIPA buffer containing 10 mM imidazole were added to the agarose. After 10 minutes rotation in cold room, the supernatants were aspirated and 1 ml cold RIPA buffer containing 30 mM imidazole were added to the agarose. After repeating the washing 3 times, 0.8 ml RIPA buffer containing 250 mM imidazole was added and the agarose was gently rotated in a cold room for 20 minutes. After centrifugation at 1000×g for 2 minutes, the supernatants were transferred to 1.5 ml tube and incubated with 100 μl 0.2% sodium deoxycholate and 100 μl 10% trichloroacetic acid in ice for 1 hour. After centrifugation at 12,000×g for 10 minutes at 4° C., the supernatants were removed and 1 ml cold acetone was added to the pellets followed by vortexing for 10 seconds. After one more washing with cold acetone, the pellets were dried at 37° C., and 39 μl PBS and 13 μl 4×NuPAGE LDS were added to the pellets with a final concentration of 5 mM DTT. Solubilized proteins were incubated at 65° C. for 20 minutes followed by incubation with a final concentration of 14 mM iodoacetamide for 45 minutes in the dark. 38 μl samples were loaded to 4-12% gradient SDS-PAGE for separation followed by Coomassie Blue staining. The gels were submitted to quantitative proteomics.
(§2) For in-gel digestions, gels were stained with Coomassie Blue and were excised into 8 equal segments for control and irisin lanes. Gel pieces were destained and dehydrated with 100% acetonitrile, vacuumed dried, and digested in 25 mM HEPES (pH 8.5) with 500 ng sequencing grade trypsin (Promega) and incubated for an overnight at 37° C. (Shevchenko et al. (1996) Anal. Chem. 68:850-858). Digests were treated with 1% formic acid and purified using C18 Stage-Tips as previously described (Rappsilber et al. (2007) Nat. Protoc. 2:1896-1906). Peptides were eluted with 70% acetonitrile and 1% formic acid, then dried using a speedvac. Isobaric labeling of digested peptides was accomplished using 6-plex tandem mass tag (TMT) reagents (Thermo Fisher Scientific, Rockford, Ill.). Reagents, 5.0 mg, were dissolved in 252 μl acetonitrile (ACN) and 5 μl of the solution was added to the digested peptides dissolved in 25 μl of 200 mM HEPES, pH 8.5. After 1 hour at room temperature, the reaction was quenched by adding 1 μl of 5% hydroxylamine. Labeled peptides were combined and acidified prior to C18 Stage-Tips desalting.
(§3) All LC-MS/MS experiments were performed on an Orbitrap Fusion™ Lumos mass spectrometer (Thermo Fisher Scientific, San Jose, Calif., USA) coupled with a Proxeon EASY-nLC™ 1200 LC pump (Thermo Fisher Scientific). Peptides were separated on a 100 μm inner diameter microcapillary column packed with 35 cm of Accucore™ C18 resin (1.8 μm, 100 Å, Thermo Fisher Scientific). […]

[2] = target: T2, MLO-Y4 cell surface proteins (Mus musculus, UniProt P61161); conditions: co-precipitated protein Actr2 (ARP2_MOUSE)
T2 construct: endogenous in cells; host or cells: MLO-Y4
Description: as §1, §2, §3

[3] = target: T3, MLO-Y4 cell surface proteins (Mus musculus, UniProt Q66GT5); conditions: co-precipitated protein Ptpmt1 (PTPM1_MOUSE)
T3 construct: endogenous in cells; host or cells: MLO-Y4
T3 sequence (Q66GT5 32-193): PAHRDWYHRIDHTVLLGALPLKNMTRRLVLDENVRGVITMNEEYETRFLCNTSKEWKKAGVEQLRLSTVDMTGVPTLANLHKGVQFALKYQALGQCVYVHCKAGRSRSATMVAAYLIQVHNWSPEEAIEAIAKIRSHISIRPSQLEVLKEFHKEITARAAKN
Description: as §1, §2, §3

[4] = target: T4, MLO-Y4 cell surface proteins (Mus musculus, UniProt Q99LC5); conditions: co-precipitated protein Etfa (ETFA_MOUSE)
T4 construct: endogenous in cells; host or cells: MLO-Y4
T4 sequence (Q99LC5 20-333): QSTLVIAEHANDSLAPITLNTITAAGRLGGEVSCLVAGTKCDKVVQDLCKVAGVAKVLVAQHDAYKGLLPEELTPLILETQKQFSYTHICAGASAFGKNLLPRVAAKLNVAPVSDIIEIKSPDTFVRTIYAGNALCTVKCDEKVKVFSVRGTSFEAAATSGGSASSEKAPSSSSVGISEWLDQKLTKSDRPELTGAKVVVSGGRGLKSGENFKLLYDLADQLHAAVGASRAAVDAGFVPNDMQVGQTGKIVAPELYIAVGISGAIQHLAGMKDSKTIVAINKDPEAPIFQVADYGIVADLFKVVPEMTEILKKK
Description: as §1, §2, §3

[5] = target: T5, MLO-Y4 cell surface proteins (Mus musculus, UniProt Q9WTP6); conditions: co-precipitated protein Ak2 (KAD2_MOUSE)
T5 construct: endogenous in cells; host or cells: MLO-Y4
Description: as §1, §2, §3

[6] = target: T6, MLO-Y4 cell surface proteins (Mus musculus, UniProt P62880); conditions: co-precipitated protein Gnb2 (GBB2_MOUSE)
T6 construct: endogenous in cells; host or cells: MLO-Y4
Description: as §1, §2, §3

[7] = target: T7, MLO-Y4 cell surface proteins (Mus musculus, UniProt P60843); conditions: co-precipitated protein Eif4a1 (IF4A1_MOUSE)
T7 construct: endogenous in cells; host or cells: MLO-Y4
Description: as §1, §2, §3

[8] = target: T8, MLO-Y4 cell surface proteins (Mus musculus, UniProt Q62028); conditions: co-precipitated protein Pla2r1 (PLA2R_MOUSE)
T8 construct: endogenous in cells; host or cells: MLO-Y4
Description: as §1, §2, §3

[9] = target: T9, MLO-Y4 cell surface proteins (Mus musculus, UniProt P56567); conditions: co-precipitated protein Csta (CYTA_MOUSE)
T9 construct: endogenous in cells; host or cells: MLO-Y4
T9 sequence (P56567 1-97): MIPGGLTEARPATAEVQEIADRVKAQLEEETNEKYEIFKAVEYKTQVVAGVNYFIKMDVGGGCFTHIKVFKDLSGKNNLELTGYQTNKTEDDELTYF
Description: as §1, §2, §3

T8 sequence (Q62028 27-1487): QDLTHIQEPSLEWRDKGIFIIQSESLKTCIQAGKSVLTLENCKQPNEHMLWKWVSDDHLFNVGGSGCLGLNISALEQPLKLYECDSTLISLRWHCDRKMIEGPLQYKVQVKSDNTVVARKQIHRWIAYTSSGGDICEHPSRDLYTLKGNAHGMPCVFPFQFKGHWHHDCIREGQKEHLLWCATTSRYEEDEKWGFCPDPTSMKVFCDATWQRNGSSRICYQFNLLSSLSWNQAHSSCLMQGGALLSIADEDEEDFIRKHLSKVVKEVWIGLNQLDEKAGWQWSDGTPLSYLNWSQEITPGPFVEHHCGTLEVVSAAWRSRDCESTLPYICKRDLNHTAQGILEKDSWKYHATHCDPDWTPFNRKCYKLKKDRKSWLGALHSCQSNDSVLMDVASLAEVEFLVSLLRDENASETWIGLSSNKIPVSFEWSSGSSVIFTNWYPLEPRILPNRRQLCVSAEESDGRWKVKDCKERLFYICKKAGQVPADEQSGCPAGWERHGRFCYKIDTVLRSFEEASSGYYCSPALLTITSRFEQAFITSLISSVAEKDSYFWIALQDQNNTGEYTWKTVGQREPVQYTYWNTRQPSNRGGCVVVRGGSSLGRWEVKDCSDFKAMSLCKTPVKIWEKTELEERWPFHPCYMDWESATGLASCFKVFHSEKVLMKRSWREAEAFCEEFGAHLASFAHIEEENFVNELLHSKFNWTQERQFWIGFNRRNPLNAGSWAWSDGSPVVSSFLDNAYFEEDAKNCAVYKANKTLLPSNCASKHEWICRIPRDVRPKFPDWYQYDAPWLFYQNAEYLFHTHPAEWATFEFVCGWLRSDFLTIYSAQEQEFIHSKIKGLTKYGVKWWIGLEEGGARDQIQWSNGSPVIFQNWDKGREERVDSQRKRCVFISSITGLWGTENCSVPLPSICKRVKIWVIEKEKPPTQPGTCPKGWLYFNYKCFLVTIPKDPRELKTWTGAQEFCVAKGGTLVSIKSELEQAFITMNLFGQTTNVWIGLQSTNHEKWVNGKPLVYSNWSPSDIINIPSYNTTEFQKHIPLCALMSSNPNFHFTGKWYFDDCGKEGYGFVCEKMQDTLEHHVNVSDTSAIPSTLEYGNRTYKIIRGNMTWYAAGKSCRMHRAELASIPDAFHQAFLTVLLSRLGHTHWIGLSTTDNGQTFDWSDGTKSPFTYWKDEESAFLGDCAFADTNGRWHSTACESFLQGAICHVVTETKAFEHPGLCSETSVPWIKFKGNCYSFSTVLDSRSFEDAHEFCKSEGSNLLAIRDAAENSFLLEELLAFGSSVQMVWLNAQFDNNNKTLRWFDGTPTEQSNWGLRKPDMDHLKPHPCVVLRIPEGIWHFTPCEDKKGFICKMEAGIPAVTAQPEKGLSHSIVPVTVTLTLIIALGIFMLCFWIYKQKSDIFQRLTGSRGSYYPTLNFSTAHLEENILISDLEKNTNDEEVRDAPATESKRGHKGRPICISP
T7 sequence (P60843 whole entry): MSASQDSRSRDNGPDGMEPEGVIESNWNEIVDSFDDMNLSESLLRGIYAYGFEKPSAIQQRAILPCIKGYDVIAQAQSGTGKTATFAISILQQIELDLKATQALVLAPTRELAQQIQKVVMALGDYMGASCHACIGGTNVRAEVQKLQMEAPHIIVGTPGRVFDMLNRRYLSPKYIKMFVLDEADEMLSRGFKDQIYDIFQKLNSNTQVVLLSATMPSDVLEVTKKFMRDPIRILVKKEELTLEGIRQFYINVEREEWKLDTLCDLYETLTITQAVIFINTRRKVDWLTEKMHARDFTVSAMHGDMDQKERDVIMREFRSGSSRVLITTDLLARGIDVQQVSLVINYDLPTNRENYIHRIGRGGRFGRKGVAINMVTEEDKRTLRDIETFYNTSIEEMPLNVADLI
T6 sequence (P62880 whole entry): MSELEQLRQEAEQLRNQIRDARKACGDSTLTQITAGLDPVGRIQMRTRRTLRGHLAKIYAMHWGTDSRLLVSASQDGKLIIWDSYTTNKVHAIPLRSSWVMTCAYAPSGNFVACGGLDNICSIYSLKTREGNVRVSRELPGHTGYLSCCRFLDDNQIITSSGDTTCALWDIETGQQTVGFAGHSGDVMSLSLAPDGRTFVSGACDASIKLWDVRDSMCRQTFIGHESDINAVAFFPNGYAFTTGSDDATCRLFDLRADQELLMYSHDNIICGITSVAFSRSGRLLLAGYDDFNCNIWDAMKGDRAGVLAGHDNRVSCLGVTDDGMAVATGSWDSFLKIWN
T1 sequence (Q8R1J9 27-321): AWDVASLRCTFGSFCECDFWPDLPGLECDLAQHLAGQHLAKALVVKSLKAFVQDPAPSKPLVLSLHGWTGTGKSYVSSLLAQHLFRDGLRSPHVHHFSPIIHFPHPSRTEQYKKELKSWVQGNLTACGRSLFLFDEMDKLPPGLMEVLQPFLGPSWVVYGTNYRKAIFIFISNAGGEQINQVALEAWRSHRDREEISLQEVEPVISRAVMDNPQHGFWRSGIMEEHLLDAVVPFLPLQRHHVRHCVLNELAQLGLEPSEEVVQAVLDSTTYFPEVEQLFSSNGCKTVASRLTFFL

- TMT signal-to-noise ratio [1]: 696.28
- TMT signal-to-noise ratio [2]: 153.626
- TMT signal-to-noise ratio [3]: 92.3664
- TMT signal-to-noise ratio [4]: 80.1458
- TMT signal-to-noise ratio [5]: 113.461
- TMT signal-to-noise ratio [6]: 294.957
- TMT signal-to-noise ratio [7]: 136.49
- TMT signal-to-noise ratio [8]: 519.664
- TMT signal-to-noise ratio [9]: 160.416
Substance: adipsin
